Consider 21 molecules from patent US20200157174A1 (DRAGONFLY THERAPEUTICS, published 2020).

Substitutions are numbered along the chain they refer to.

Sequences and labels used below:
T1: recombinant human NKG2D-Fc (human, UniProt P26718 73-216)
T1 construct: extracellular domain; also called human NKG2D-Fc fusion protein; NKG2D-Fc-biotin; not shown: human IgG1 Fc domain
T1 sequence (looked up): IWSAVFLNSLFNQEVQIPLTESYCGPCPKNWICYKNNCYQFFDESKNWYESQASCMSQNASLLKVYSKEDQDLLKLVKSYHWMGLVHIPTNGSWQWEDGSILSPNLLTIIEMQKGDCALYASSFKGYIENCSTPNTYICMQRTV

T2: recombinant cynomolgus NKG2D-Fc (cynomolgus; human, UniProt P61252 73-216)
T2 construct: extracellular domain; also called cynomolgus NKG2D-Fc fusion protein; not shown: human IgG1 Fc domain
T2 sequence (looked up): T1 sequence (looked up) with D43N, T133I

T3: recombinant mouse NKG2D-Fc (mouse; human, UniProt O54709 90-232)
T3 construct: extracellular domain; also called mouse NKG2D-Fc fusion protein; Mouse NKG2D-Fc-biotin; not shown: human IgG1 Fc domain
T3 sequence (looked up): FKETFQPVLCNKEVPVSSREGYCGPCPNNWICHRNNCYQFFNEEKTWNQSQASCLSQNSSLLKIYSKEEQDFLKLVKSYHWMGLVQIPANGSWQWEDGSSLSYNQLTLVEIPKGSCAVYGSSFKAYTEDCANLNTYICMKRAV

B1: ADI-27749 (antibody, V domains shown)
VH: EVQLVESGGGLVKPGGSLRLSCAASGFTFSSYSMNWVRQAPGKGLEWVSSISSSSSYIYYADSVKGRFTISRDNAKNSLYLQMNSLRAEDTAVYYCARGAPMGAAAGWFDPWGQGTLVTVSS
VL: DIQMTQSPSSVSASVGDRVTITCRASQGISSWLAWYQQKPGKAPKLLIYAASSLQSGVPSRFSGSGSGTDFTLTISSLQPEDFATYYCQQGVSFPRTFGGGTKVEIK
notes: also called A49
B2: ADI-27705 (antibody, V domains shown)
VH: QVQLQQWGAGLLKPSETLSLTCAVYGGSFSGYYWSWIRQPPGKGLEWIGEIDHSGSTNYNPSLKSRVTISVDTSKNQFSLKLSSVTAADTAVYYCARARGPWSFDPWGQGTLVTVSS
VL: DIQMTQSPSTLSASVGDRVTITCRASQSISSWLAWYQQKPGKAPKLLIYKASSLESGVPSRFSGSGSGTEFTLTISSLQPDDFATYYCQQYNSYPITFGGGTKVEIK
B3: ADI-29403 (antibody, V domains shown)
VH: B2 VH
VL: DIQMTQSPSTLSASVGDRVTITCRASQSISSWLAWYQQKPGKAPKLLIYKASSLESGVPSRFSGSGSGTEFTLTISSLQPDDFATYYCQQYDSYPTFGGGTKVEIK
B4: ADI-29447 (antibody, V domains shown)
VH: B2 VH
VL: DIQMTQSPSTLSASVGDRVTITCRASQSISSWLAWYQQKPGKAPKLLIYKASSLESGVPSRFSGSGSGTEFTLTISSLQPDDFATYYCQQYDTFITFGGGTKVEIK
notes: also called F47
B5: ADI-29429 (antibody, V domains shown)
VH: B2 VH
VL: DIQMTQSPSTLSASVGDRVTITCRASQSIGSWLAWYQQKPGKAPKLLIYKASSLESGVPSRFSGSGSGTEFTLTISSLQPDDFATYYCQQYELYSYTFGGGTKVEIK
B6: ADI-29419 (antibody, V domains shown)
VH: B2 VH
VL: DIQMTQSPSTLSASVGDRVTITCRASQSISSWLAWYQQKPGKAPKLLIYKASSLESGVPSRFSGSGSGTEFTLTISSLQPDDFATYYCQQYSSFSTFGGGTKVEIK
B7: ADI-29424 (antibody, V domains shown)
VH: B2 VH
VL: B4 VL with T93S
B8: ADI-29407 (antibody, V domains shown)
VH: B2 VH
VL: B4 VL with D92Q, T93S, I95P
B9: ADI-29404 (antibody, V domains shown)
VH: B2 VH
VL: B4 VL with Q89E, T93S, F94Y, I95P
notes: also called F04
B10: ADI-29425 (antibody, V domains shown)
VH: B2 VH
VL: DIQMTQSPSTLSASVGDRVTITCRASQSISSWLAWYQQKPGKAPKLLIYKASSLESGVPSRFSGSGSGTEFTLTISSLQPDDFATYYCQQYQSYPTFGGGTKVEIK
B11: ADI-29421 (antibody, V domains shown)
VH: B2 VH
VL: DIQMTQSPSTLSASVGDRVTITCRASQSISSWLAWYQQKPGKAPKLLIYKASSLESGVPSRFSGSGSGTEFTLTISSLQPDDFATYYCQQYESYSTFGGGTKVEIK
B12: ADI-28226 (antibody, V domains shown)
VH: B2 VH
VL: B5 VL with G30S, E92G, L93S, Y94F, S95P, Y96I
notes: also called C26
B13: ADI-27741 (antibody, V domains shown)
VH: B2 VH
VL: B4 VL with S30G, Y91S, D92N, T93S, F94Y, I95Y
B14: ADI-29399 (antibody, V domains shown)
VH: B2 VH
VL: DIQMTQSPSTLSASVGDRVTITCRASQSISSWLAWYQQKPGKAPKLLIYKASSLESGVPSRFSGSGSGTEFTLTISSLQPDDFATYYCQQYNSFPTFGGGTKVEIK
B15: ADI-29405 (antibody, V domains shown)
VH: B2 VH
VL: B4 VL with D92G, T93S, I95P
B16: ADI-27743 (antibody, V domains shown)
VH: B2 VH
VL: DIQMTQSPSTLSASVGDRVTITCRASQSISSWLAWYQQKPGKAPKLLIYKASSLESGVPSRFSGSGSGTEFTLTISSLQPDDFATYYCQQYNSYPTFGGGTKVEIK
B17: ADI-29401 (antibody, V domains shown)
VH: B2 VH
VL: B4 VL with S30G, T93I, F94Y, I95P
B18: ADI-27740 (antibody, V domains shown)
VH: B2 VH
VL: B4 VL with S30G, D92H, T93S, I95Y
notes: also called A40
B19: ADI-29426 (antibody, V domains shown)
VH: B2 VH
VL: B4 VL with S30G, D92H, T93S, I95P
B20: ADI-27727 (antibody, V domains shown)
VH: QVQLVQSGAEVKKPGSSVKVSCKASGGTFSSYAISWVRQAPGQGLEWMGGIIPIFGTANYAQKFQGRVTITADESTSTAYMELSSLRSEDTAVYYCARGDSSIRHAYYYYGMDVWGQGTTVTVSS
VL: not shown
B21: ADI-29378 (antibody, V domains shown)
VH: QVQLVQSGAEVKKPGASVKVSCKASGYTFTSYYMHWVRQAPGQGLEWMGIINPSGGSTSYAQKFQGRVTMTRDTSTSTVYMELSSLRSEDTAVYYCAREGAGFAYGMDYYYMDVWGKGTTVTVSS
VL: EIVLTQSPATLSLSPGERATLSCRASQSVSSYLAWYQQKPGQAPRLLIYDASNRATGIPARFSGSGSGTDFTLTISSLEPEDFAVYYCQQSDNWPFTFGGGTKVEIK
notes: also called E78

The first experiment has as its target T1, recombinant human NKG2D-Fc. In words: ELISA on coated NKG2D-Fc.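 Also: titrated NKG2D-binding domains on plate-bound human, mouse or cynomolgus NKG2D ectodomain–human IgG1 Fc fusions, detected with HRP anti-human kappa secondary and TMB, absorbance at 450 nm corrected at 540 nm.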
Description: (§1) After purification, NKG2D-Fc fusion proteins were adsorbed to wells of microplates. After blocking the wells with bovine serum albumin to prevent non-specific binding, NKG2D-binding domains were titrated and added to the wells pre-adsorbed with NKG2D-Fc fusion proteins. Primary antibody binding was detected using a secondary antibody which was conjugated to horseradish peroxidase and specifically recognizes a human kappa light chain to avoid Fc cross-reactivity. 3,3′,5,5′-Tetramethylbenzidine (TMB), a substrate for horseradish peroxidase, was added to the wells to visualize the binding signal, whose absorbance was measured at 450 nm and corrected at 540 nM.
Consider B1, for which the binding result was “binds”.

For B2, the binding result is “binds”.

Take B3: the binding result is given as “binds”.

In the case of B4, the binding result is “binds”.

B5: the binding result was “binds”.

On to B6, for which the binding result is recorded as “binds”.

For the molecule B7, the binding result is reported as “binds”.

In the case of B8, the binding result is recorded as “binds”.

B9: the binding result is recorded as “binds”.

B10: the binding result is recorded as “binds”.

As for B11, the binding result is “binds”.

Take B12: the binding result was “binds”.

For the molecule B13, the binding result is “binds”.

Regarding B14, the binding result is listed as “binds”.

Regarding B15, the binding result is on record as “binds”.

Turning to B16, the binding result is on record as “binds”.

Consider B17, for which the binding result is “binds”.

As to B18, the binding result is “binds”.

Turning to B19, the binding result was “binds”.

Regarding B20, the binding result is “binds”.

Take B21: the binding result is given as “binds”.

In a further experiment the target is T2, recombinant cynomolgus NKG2D-Fc. In words: ELISA on coated NKG2D-Fc.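 Also: titrated NKG2D-binding domains on plate-bound human, mouse or cynomolgus NKG2D ectodomain–human IgG1 Fc fusions, detected with HRP anti-human kappa secondary and TMB, absorbance at 450 nm corrected at 540 nm.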 A general note: An ELISA detects its analyte on a solid surface through an enzyme-linked reagent.
Description: as §1
For the molecule B1, the binding result is listed as “binds”.

Take B2: the binding result is listed as “binds”.

Consider B3, for which the binding result is reported as “binds”.

For B4, the binding result was “binds”.

In the case of B5, the binding result is reported as “binds”.

Regarding B6, the binding result was “binds”.

With B7, the binding result is “binds”.

Take B8: the binding result is listed as “binds”.

For the molecule B9, the binding result is reported as “binds”.

Consider B10, for which the binding result is recorded as “binds”.

Turning to B11, the binding result is recorded as “binds”.

Regarding B12, the binding result is listed as “binds”.

In the case of B13, the binding result is on record as “binds”.

As to B14, the binding result is recorded as “binds”.

For B15, the binding result is reported as “binds”.

Take B16: the binding result is reported as “binds”.

Consider B17, for which the binding result is “binds”.

For B18, the binding result was “binds”.

As to B19, the binding result was “binds”.

Consider B20, for which the binding result is “binds”.

Turning to B21, the binding result is on record as “binds”.

Another experiment addresses T3, recombinant mouse NKG2D-Fc. In words: ELISA on coated NKG2D-Fc.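 Also: titrated NKG2D-binding domains on plate-bound human, mouse or cynomolgus NKG2D ectodomain–human IgG1 Fc fusions, detected with HRP anti-human kappa secondary and TMB, absorbance at 450 nm corrected at 540 nm.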
Description: as §1
For B1, the binding result was “binds”.

As for B2, the binding result is reported as “binds”.

In the case of B3, the binding result was “binds”.

For the molecule B4, the binding result is recorded as “binds”.

As to B5, the binding result is given as “binds”.

Regarding B6, the binding result is reported as “binds”.

B7: the binding result is “binds”.

Turning to B8, the binding result is listed as “binds”.

For the molecule B9, the binding result is “binds”.

As to B10, the binding result is reported as “binds”.

Take B11: the binding result is reported as “binds”.

For the molecule B12, the binding result is “binds”.

In the case of B13, the binding result is given as “binds”.

On to B14, for which the binding result is “binds”.

Consider B15, for which the binding result was “binds”.

As to B16, the binding result was “binds”.

Take B17: the binding result is “binds”.

With B18, the binding result was “binds”.

In the case of B19, the binding result is recorded as “binds”.

Take B20: the binding result is reported as “binds”.

On to B21, for which the binding result was “binds”.
